Numbering of substitutions follows the chain as printed. Numbers in names are those of the source. Unless stated, no cut-off for active and inactive is given here.
B1: HS9_DSB7_L26G: HS9_DSB7 with peptide point mutation L26G; SEQ ID NO: 469 (protein)
chain: HGEGTFTSDLSKQMEEECVRLFIEWGKNGGPSSGAPPPGCGGGGGSGGGGSGGGGSADIQMTQSPSSLSASVGDRVTITCQASQDVKTAVAWYQQKPGKAPKLLIYSASYRYTGVPSRFSGSGSGTDFTFTISSLQPEDIATYYCQQRYSLWRTFGQGTKLEIK
B2: HS9_DSB7_L26E: HS9_DSB7 with peptide point mutation L26E; SEQ ID NO: 470 (protein)
chain: B1 chain with G26E
B3: HS9_DSB7_L26D: HS9_DSB7 with peptide point mutation L26D; SEQ ID NO: 471 (protein)
chain: B1 chain with G26D

Molecular target: human GLP-1 receptor (Homo sapiens, UniProt P43220)
Test: cAMP production assay in CHO cells expressing human GLP-1 receptor
Format: cell-based
Details: Table 18; for % Max Effect: maximum activation compared to GLP-1
Experimental: Low protein binding 384-well plates (Greiner) were used to perform eleven 1 in 4 serial dilutions of test compound that were made in assay medium (0.1% bovine serum albumin in Hanks Balanced Salt Solution (GIBCO or Sigma), containing 0.5 mM IBMX (Sigma)). All sample dilutions were made in duplicate. […] Cells were then re-suspended in assay buffer at the optimized concentration of 1×10^5 cells/mL and dispensed at 5 uL per well to black shallow-well u-bottom 384-well plates (Corning). 5 μL of test compound was transferred from the dilution plate to the cell plate and incubated at room temperature for 30 minutes. cAMP levels were measured the cAMP dynamic 2 HTRF kit (Cisbio), following the two step protocol as per manufacturer's recommendations. Briefly, anti-cAMP cryptate (donor fluorophore) and cAMP-d2 (acceptor fluorophore) were made up separately by diluting each 1/20 in conjugate & lysis buffer provided in the kit. 5 uL of anti-cAMP cryptate was added to all wells of the assay plate and 5 uL of cAMP-d2 added to all wells except non-specific binding wells, to which only conjugate and lysis buffer was added. […] Data was transformed to % Delta F as described in manufacturer's guidelines and analyzed by unconstrained 4-parameter logistic fit of data, curve mid-point to determine EC50.

human GLP-1 receptor, sequence (P43220 24-463): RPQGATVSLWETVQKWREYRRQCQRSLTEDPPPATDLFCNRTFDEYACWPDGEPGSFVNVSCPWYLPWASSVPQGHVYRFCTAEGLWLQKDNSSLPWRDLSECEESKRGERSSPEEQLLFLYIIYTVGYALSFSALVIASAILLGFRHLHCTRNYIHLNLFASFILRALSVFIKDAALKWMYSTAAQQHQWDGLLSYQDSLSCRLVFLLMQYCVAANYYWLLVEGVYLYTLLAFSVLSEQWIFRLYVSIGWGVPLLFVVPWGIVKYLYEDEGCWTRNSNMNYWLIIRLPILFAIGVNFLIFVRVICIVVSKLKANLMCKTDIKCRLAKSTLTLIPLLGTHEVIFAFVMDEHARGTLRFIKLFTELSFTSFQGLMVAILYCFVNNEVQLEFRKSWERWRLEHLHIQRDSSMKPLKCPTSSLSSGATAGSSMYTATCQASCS

Molecule | % Max Effect | Potency at huGLP-1R in cAMP assay (M)
B1 | 81% | –
B2 | Inactive | Inactive
B3 | Inactive | Inactive

Reference: US10077319B2, “Anti-PCSK9-GLP-1 fusions and methods for use” (MedImmune, LLC, priority 2014, dated 2018)
